According to US20050004013A1 (Scripps Research, published 2005):
Bridges are numbered along the chain shown (N, C = ends). Where no end group is shown, it is not given here.

T1: mouse N-cadherin fused to Red Fluorescent Protein, on stably transfected L-cells (mouse, UniProt P15116 160-906)
T1 sequence (looked up): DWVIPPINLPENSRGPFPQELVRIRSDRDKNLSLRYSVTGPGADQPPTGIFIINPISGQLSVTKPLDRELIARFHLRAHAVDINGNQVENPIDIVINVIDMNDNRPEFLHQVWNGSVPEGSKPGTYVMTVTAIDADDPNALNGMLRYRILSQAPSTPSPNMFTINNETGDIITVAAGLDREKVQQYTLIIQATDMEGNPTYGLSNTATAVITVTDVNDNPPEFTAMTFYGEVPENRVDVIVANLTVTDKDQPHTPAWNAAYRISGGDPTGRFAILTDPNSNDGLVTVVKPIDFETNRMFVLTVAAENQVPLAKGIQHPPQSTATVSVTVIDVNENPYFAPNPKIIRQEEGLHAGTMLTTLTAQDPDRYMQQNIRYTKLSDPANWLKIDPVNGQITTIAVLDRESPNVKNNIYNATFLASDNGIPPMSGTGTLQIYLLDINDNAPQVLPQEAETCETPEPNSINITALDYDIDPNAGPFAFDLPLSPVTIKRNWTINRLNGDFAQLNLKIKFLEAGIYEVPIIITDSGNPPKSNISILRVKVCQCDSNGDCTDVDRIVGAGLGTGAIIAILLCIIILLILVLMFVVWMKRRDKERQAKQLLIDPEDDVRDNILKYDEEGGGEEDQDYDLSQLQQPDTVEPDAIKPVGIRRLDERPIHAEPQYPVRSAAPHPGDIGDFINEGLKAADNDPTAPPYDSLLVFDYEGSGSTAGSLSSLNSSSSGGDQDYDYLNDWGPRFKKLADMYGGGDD

T2: mouse R-cadherin fused to Red Fluorescent Protein, on stably transfected L-cells (mouse, UniProt P39038 167-913)
T2 sequence (looked up): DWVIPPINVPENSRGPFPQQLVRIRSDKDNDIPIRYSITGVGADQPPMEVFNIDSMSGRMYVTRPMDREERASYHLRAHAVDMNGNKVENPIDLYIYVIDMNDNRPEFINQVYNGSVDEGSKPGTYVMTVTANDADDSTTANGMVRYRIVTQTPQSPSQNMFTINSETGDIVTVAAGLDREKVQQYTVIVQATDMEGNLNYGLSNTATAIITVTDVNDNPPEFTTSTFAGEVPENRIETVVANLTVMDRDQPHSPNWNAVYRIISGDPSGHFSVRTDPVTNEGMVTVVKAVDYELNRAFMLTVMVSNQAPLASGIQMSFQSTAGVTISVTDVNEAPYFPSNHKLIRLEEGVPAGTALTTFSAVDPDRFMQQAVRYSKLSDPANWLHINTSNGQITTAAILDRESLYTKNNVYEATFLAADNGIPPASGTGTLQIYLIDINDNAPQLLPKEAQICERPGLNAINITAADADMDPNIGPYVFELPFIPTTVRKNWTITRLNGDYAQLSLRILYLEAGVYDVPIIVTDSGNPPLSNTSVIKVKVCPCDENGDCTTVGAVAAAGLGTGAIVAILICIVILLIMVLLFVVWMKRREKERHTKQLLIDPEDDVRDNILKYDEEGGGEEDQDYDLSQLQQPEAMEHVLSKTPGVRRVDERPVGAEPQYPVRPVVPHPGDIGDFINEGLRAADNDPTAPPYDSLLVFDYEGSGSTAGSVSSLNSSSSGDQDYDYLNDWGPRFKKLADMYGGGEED


Experiments:
[1] = target: T1, mouse N-cadherin fused to Red …; experiment: cell-based or functional assay
[2] = target: T2, mouse R-cadherin fused to Red …; experiment: cell-based or functional assay

| Binder | IC50 of inhibition of N-cadherin mediated L-cell aggregation [1] [µM] | IC50 of inhibition of R-cadherin mediated L-cell aggregation [2] [µM] | IC50 of inhibition of R-cadherin mediated L-cell adhesion (aggregation) [2] [µM] | effectiveness relative to cyclic IDS in the aggregation assay [2] [fold lower] |
| --- | --- | --- | --- | --- |
| CINPC (disulfide 1-5; not fully specified) [cyclic CINPC (SEQ ID NO: 9)] | < 300 |  |  |  |
| CHAVC (disulfide 1-5) [cyclic HAV peptide (CHAVC, SEQ ID NO: 20)] | 150 to 200 | 150 to 200 |  |  |
| CIDSC (disulfide 1-5; not fully specified) [cyclic CIDSC (SEQ ID NO: 8)] |  | ~300 |  |  |
| IDSMSGR (not fully specified) [IDSMSGR (SEQ ID NO: 2)] |  |  | ~900 | ~3 |
